Assay results from patent US20090202550A1 (WILEX, published 2009).
Values belong to the molecule of their own block, whether it stands above or below them.

Key:
[1] = molecular target: FPRL1 on freshly isolated monocytes (human) (UniProt P25090); assay: cell-based or functional assay
[2] = molecular target: T1, soluble recombinant uPAR fragment D2D3 93-274 (human, UniProt Q03405 115-296); assay: standard ELISA, coated purified protein, 7G1 as detecting antibody (FIG. 7A)
T1 construct: Purified from COS-7 supernatant on an anti-FLAG column; Mature-protein numbering
T1 sequence (Q03405 other isoform, or with tags, fused parts or gaps limits assumed): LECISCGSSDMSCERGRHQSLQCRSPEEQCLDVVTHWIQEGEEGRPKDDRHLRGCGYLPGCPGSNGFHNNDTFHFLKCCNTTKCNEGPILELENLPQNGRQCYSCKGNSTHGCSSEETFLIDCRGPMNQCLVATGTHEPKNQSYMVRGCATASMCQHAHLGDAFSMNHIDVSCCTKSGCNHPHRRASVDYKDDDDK

[3] = molecular target: full length GPI-linked D1D2D3 (cell surface uPAR) (human) (UniProt Q03405); assay: cell-based or functional assay
Chain of full length GPI-linked D1D2D3 (cell surface uPAR) (human) (Q03405 23-305, one chain of several): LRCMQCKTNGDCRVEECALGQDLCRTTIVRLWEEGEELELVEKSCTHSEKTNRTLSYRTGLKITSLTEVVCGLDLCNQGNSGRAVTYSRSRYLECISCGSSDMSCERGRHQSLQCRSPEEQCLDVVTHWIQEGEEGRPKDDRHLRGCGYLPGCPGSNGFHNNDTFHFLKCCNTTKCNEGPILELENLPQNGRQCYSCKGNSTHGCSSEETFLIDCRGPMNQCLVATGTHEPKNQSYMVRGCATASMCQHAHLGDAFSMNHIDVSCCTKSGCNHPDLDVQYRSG

Chain of FPRL1 on freshly isolated monocytes (human) (P25090 whole entry, the tested form may be a part): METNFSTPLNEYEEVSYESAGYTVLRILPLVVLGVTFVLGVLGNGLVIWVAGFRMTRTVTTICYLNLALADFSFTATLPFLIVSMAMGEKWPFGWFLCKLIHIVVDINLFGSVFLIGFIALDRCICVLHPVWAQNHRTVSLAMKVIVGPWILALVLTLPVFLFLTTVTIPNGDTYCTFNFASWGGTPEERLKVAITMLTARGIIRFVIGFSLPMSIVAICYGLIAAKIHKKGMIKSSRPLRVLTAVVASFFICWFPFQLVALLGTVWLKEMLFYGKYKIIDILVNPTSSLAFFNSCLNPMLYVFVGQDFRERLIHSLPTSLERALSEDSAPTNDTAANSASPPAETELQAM

% induced migration of monocytes, MMK-1 as chemoattractant, rabbit IgG control present [1]: 303%
Migration fold increase, MMK-1 as chemoattractant, rabbit IgG control present [1]: 2.94 fold
Molecule: MMK-1, FPRL1 ligand (peptide)

fold lower recognition than of D2D3 84-274 [2]: ≥ 100 fold
% induced migration (ATF) of monocytes, antibody 50 µg/ml [3]: 210%
% of inhibition (referred to MOPC treatment) [3]: 10%
Migration fold increase [3]: 2.44 fold
B1: monoclonal antibody 7G1 (antibody, V domains shown)
VH: VQLQESGPELKKPGETVKISCKASGYTFTDYSMHWVKQAPGKGLKCMGWINTETTKSTYADDFKGRFALSLETSASTVYLQISNLKNEDTATYFCAREASYGEFDYWGQGTTVTVSS
VL: DIVLTQSPASLAVSLGQRATISCRASKSVSTSGYSYMHWYQQKPGQPPKLLIYLASNLESGVPARFSGSGSGTDFTLDIHPVEEEDAATYYCQHSRELPYTFGGGTKLELK
